The assay addresses OVA peptide SIINFEKL bound to H-2Kb MHC I on mouse phDC / BMDC (mouse). In words: cell-based or functional assay.

Some results are limits rather than exact numbers.

“T cell receptor of OVA-specific OT1 CD8 T cells (C57Bl/6-Tg (TcraTcrb)1100Mjb/J mice)” yielded a Proliferation of the OT1 CD8 T cells (CFSE dilution), coculture with titrated numbers of OVA mRNA LNP-transduced phDC below 47%.

Values taken from patent publication US20260273045A1.
